The source of these data is US20110251266A1.

The target of the assay is Human NGF (manufactured by R&D Systems) (human) (UniProt P01138). The assay can be described thus: cell-based or functional assay.
Human NGF (manufactured by R&D Systems) (human), sequence (P01138 122-241 limits assumed): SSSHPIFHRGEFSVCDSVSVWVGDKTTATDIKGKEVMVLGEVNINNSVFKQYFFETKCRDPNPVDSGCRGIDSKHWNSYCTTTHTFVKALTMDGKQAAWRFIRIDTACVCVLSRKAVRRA

Turning to “anti-NGF antibody (MAB2561, R&D Systems)”, the inhibitory activity (neurite outgrowth of PC-12 cells) is greater than 50%.
